Results as given in article PMC12489035, “RABGAP1 is a sensor that facilitates the sorting and processing of amyloid precursor protein” (The EMBO Journal, 2025).
Blank lines part the entries; values can stand above or below the binder they belong to.

Key:
[1] = biological target: T1, His-tagged PTB domain of RABGAP1; experiment: ITC; APP peptides titrated into about 100 μM His-PTB of RABGAP1 in 2.4 μl injections at 20 °C; 100 mM Tris pH 7.4, 300 mM NaCl, 1 mM TCEP; Nano ITC; three independent runs for the WT peptide; settings: both partners purified
T1 chain: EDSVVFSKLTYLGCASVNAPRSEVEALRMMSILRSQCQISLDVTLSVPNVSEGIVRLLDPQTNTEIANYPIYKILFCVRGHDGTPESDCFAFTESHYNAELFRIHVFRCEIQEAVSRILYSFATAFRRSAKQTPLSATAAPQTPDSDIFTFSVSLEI

[2] = biological target: T2, GST fused to the APP cytosolic tail mutant FFE689-91AAA (UniProt P05067-4 649-695, FFE689-91AAA); experiment: pull-down; GST-APP tail WT, tail mutants or GST only on glutathione-Sepharose beads, incubated overnight at 4 °C with pre-cleared HEK293T lysate; eluted with 1.5 M NaCl; eluates immunoblotted for the hits; N = 3; settings: one partner purified
T2 construct: amyloid precursor protein (APP), cytosolic tail, residues 649-695; numbers count on: APP isoform 695; also called FFE689-9AAA; source: T7 express E. coli; clarified lysate loaded on glutathione-Sepharose 4B beads and washed
T2 chain (looked up): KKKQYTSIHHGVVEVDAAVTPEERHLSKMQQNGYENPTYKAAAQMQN

Kd [1]: ~61 µM | stoichiometry N [1]: 1
B1: WT APP tail peptide starting from the MQQ sequence at position 677 (peptide, UniProt P05067-4 677-695, looked up)
peptide: MQQNGYENPTYKFFEQMQN
notes: amyloid precursor protein (APP), cytosolic tail from M677 (MQQ...); numbers count on: APP isoform 695; The peptide probably runs to the C-terminus of APP695 (residue 695); also called APPwt; WT APP peptide

fold change of binding against the WT tail [2]: ~3 fold
B2: RABGAP1 (natural protein)
chain: not shown
notes: also called GAPCenA; TBC1D11; source: endogenous, HEK293T lysate
